In the nanobody polyreactivity screen of Harvey et al. (2022):

Assay: yeast display, Sf9 membrane polyspecificity reagent, FACS + sequencing; frameworks hold sequencing errors
In short: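 A synthetic nanobody library was expressed on Saccharomyces cerevisiae BJ5465 by galactose induction for 36–48 hours. The library was stained for 1 hour at 4 °C with 10% biotinylated, detergent-solubilized Sf9 membrane reagent and enriched with streptavidin microbeads before FACS. Low and high (top ~1%) gates were set on anti-HA fluorescence for expression and streptavidin fluorescence for reagent binding, and each polyreactivity label reflects the gate of origin.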

| Sequence | polyreactivity (PSR sort gate) |
| --- | --- |
| QVQLVESGGGLLQAGGSLRLSCAASGRIFGGYDMGWYRQAPGKERELVASISYSGGTTYYADSVKGRFTISRDNAKNTVYLQMNSLKPEDSAVYYCAALSQHNDSGYDYWGQGTQVTVSS | high polyreactivity |
| QVQLVESGGGLVQAGGSLRLSCAASGFILGSNVMGWYRQAPGKERELVAAISYSGGSTYYADSVKGRFTISRDNAKNTVYLQMNSLKPEDTAVYYCARRLTREYDYWGQGSQVTVSS | low polyreactivity |
| QVQLVESGGGLVQAGGSLRLSCAASGFIFDTNAMGWSRQAPGKDRELVARISSSAGSTYYAVSVKGRFTISRDNAKNTVYLLMNSLKPEDTAVYYCNADTGLGSLDFDKRDYWGQGTQVTVSS | low polyreactivity |
| QVQLVESGGGLVQAGGSLRLSCAASGLTLYQYSMGWYRQAPGKERELVAAIPTSGSTYFADSVKGRFTISRDNAKNTVYLQMNSLKPEDTAVYYCAADVYYVDTLSGYRYGYDYWGQCTQVTVSS | low polyreactivity |
| QVQLVESGGGLVQAGGSLRLSCAASGSLFPHYAMGWNRQAPGKEREFVATISGSTGRTYYADSVKGRFTISRDNAKNTVYLQMNSLKPEDTAVYYCATSVGYYLPPIKYDYWGQGTQVTVSS | low polyreactivity |
| QVQLVESGGGLVQAGGSLRLSCAASGIIFRLYGMGWYIQAPGKEREFVATITWRGGRTNYADSVKGRFTISRDNAKNTVYLQMNSLKPEDTAVYYCAAGSAPSYWGGWYYERDYWGQGTQVTVSS | low polyreactivity |
| QVQLVESGGGLVQAGGSLRLSCAASGSIIRRYAMGWYRQAPGKERELVAAISSNGGSTYYADSVKGRFTISRDNAKNTVYLQMNSLKPEDTAVYYCNKLSSYVVARRTTEYDYWGQGTQVTVSS | high polyreactivity |
| QVQLVESGGGLVQAGGSLRLSCAASGRSFDRYAMGWYRQAPGKERELVAGITASGGSTYYADSVKGRFTISRDNAKNTVYLQMNSLKPEDTAVYYCAVVYGYRYYYWGQGTQVTVSS | high polyreactivity |
| QQQLHESGGGLVQAGGSLRLSCAASGSISQAWYMGWYRQAPGKERELVAAINVGAITYYADIVKGRFSISRDNAKNTVFLPMNSLTPEDTAVYYCAVDQYSEAYYDYWGQGTQATVSS | high polyreactivity |
| QVHLLESGRGLVQAGGSLRLSCAASGRIFYTNAMGSYRQAPGKERELVAVISWGGDTTYYADSVKGRFTISRDNAKNTVYLQMNSLKPEDTAGYYCNADWGPTYEISDSWGQGNQVTVSS | low polyreactivity |
| QVQLVESGGGLGQAGGSLRLSCAASGLTFTKNVMGWSSQAPGKERELVAVISRSGGSTYYADSVKGRFTISRDNAKNTVYLQMISLKPEDTAVYYCNVKGPGPSRGNYWGQGTQVTVSS | low polyreactivity |
| QVQLQVSGGDLVPAGGSLRLSCAGSGTIYGLTSMAWYRQAPGKEREFVAAITDGGNANYADSVKGRFTISRDNAKNTVYLQMISLKPEDTAVYYCAVLFSDDAYYAYWGQGTQVTVSS | low polyreactivity |
| QVQLVESGGGLVQAGGSHRLSCAASGLIFPYNAMGWYRQAPGKERELVAAIDSGVTTYYADSVKGRFTISRDNAKNTVYLQMNSLKPEDTAVYYCAADGLPGPEGDSWGQGTQVTVSS | low polyreactivity |
| QVQLVESGGGLVQAGGSLRLSCAASGYIFLYSTMGWYRQAPGKERELVAAITIGGGTYYADSVKGRFTISRDNAKNTVYLQMNSLKPEDTAVYYCNADYASYYRYSRPLEMNYWGQGTQVTVSS | low polyreactivity |
| QVQLVESGGGLVQAGGSLRLSCAASGRIFPTNAMGWYRQPPGKEREFVAAITWRGGSTYYADSVKGRFTISRDNAKNTVYLQMNSLKPEDTAVYYCAAELDYFPGYDYWGQGTQVTLSS | low polyreactivity |
| QVQLVESGGGLVQAGGSLRLSCAASGSIFDHTNAMGSYRQAPGKERELVAAITSGSSTNYADSVKGRFTISRDNAKKTVDLQMNSLKPEDTAVYYCNADRFHSGIFDYWGQGTQVTVSS | low polyreactivity |
| QVQLVDSGGGLVQAGGRLRLSCAASGSIYAAYTMGRYRQAPGKERELVAAISVSTVSTYYADSVKGRFTISRDNAKNTVYLQMNSLKPDDTAVYYCNADATYSYPEKDEPDSWGQGTQVTVSS | low polyreactivity |
| QVQLVESGGGLVQAGGSLRLSCAASGSIFHNNAMGWYRQAPGKERELVASITSRGGSTYYADSVKGRFTISRDNAKNTVYLQMNSLKPEDTAVYYCAARPYARVKTHGYWGQGTQVTVSS | low polyreactivity |
| QVQLVESGGGLVQAGGSLRLSCAASGSIFGLYAMGWYRQAPGKERELVAAISRSGGSTYYADSVKGRFTISRDNAKNTVYLQMYSLKPEDSAVYDCNALRWSQYTYSSRLGHFDSWGQGTQVTVSS | high polyreactivity |
| QVHLVESGGGLVQAGGSLRLSCAASGRIFGRNAMGWYRQAPGKERELVAAISKRGGSTSYADSVKGRFTISRDNAKNTVYLQMNSLKPEDTAVYYCATSAPLVTSSGYGYWGHGTQVTVSS | high polyreactivity |
| QVQLVESGGGLVQAGGSLRLSCAASGFILPIYAMGWYRQAPGKEREFVAAITWTGGSTYYADSVKGRFTISRDNANNTVYLQMNSLKPEDTAVYYCNAEGRSYYYIIYDFWGQGTQVTVSS | high polyreactivity |

| Sequence | polyreactivity (PSR sort gate) |
| --- | --- |
| QVQLVESGGGLVQAGGSLRLSCSASGSTFFIYAMGWYRQAPWKERELVAAIRSGGTYYADSVKGRFTISRDNAKITVYLQMKSLKPEDTAVYYCAARTRGFRYYYWGQGTQVTVSS | high polyreactivity |
| QVQIVESGGALVQAGGSLRLSCAASGSTHGNAMGWYRQAPGKERELVAAISLNTGSTYYADSVKGRFTISRDNAKNTVYLQMNSLKPEDTAVYYCAAGGTARDDSWGQGTQVTVSS | low polyreactivity |
| HVQLVESGVGLVQAGGSLRLSCEASGFIFIRYAMGWYRQAPGQERELVASISSGGSTYYADSVKGRFTISRDNAKNTVYFQMNSLKPEDTAVFYCAAVFSKGLEGDYWGQGTEVTVSS | high polyreactivity |
| QVQLVESGGGLVQAGGSLRLSCAASGRTFWANAMGWYRPAPGKERELVAAITIGGRTYYADSVKGRFTISRDNAKNTVYLQMNSLKPEDTAVYYCNAGTRRPFPAESGYWGQVTQVTVSS | low polyreactivity |
| QVQLVESGGGLVQAGGSLRLSCAASARIFYPYAMGWYRQAPGKERELVAAINWIGGSTYYADSVKGRFTISRDNAKYTVYLQMNSLKPEDSAVYYCAASYWHRRYDYWGQGTQVTLSS | high polyreactivity |
| QVQLLESGGGLVQAGGSLRLSCAASGSTFNVYAMGWYRQAPGKERELVAAINWSGGNTYYADSVKGRFTISRDNAKNTVYLQMNSLNPEDTAVDYCNADGFVGTPSVDYDYWGQGTQVTVSS | low polyreactivity |
| QVQLVESGGGLVQAGGSLRLSCAASGFIFQYYAMGWYRQAPGKERELVAAISWRSTSTYYADSVKGRFTISRDNAKNTVYLQMNSLKPEDTAVYYCAASPGFSIGYEYWGQGTQVTVSS | low polyreactivity |
| QVQLVESGGGLVQAGGSLSLSSSASGRTFKGNAMGWYIQAPGKERELVAVITGSGGSTYYADSVKGRFTISRDNAKNTVYLQMNSLKPEDTAVYYCNKKLQRRSWYDYWGQGTQVTVSS | low polyreactivity |
| QVQLGESGGGLVQAGGSLRLSCAASGFTFYRYTLGWYRQEPGKERELVAAITWSGGNTYYADSVKGRFTISRDNAKNTVYLQMNSLKPEDTAFYYCAAYKPYSKYNYWGQGTQVTVSS | high polyreactivity |
| QVQLVESGGGLVQAGGSLRLSCAASGFTFSRNVMGWYRQAPGKERELVADITLSGASTYYADSVKGRFTISRDNAKNTVYLQMNSLKPEDTAVYYCAADPYHWRCGWRHDYWGQGTQVTVSS | low polyreactivity |
| QVQLVESGGGLVQAGGSLRLSCAASGSIFDINAMGWYRQAPGKERELVAVITDSGSTYYADSVKGRFTISRDNAKNTVYLQMNSLKPEDTAVYYCAAESSLLFFLMDYWGQGTQVTVSS | low polyreactivity |
| QDQLVESGGGLVQARGSLRLSCAASGYIFPFYAMGWYRQAPGKESELVASISSSSGRTNYADSVKGRFTISRDNAMNTVYLQMNSLKPEDTAVYYCSAAYLRYVSTQYHYDYWGQGTQVTVSS | low polyreactivity |
| QVQLVESGGGLVQAGGSLRLSCAASGRIFTRNAMGWYRQAPGKEREFVAAISYRGGSTYYADSVKGRFTISRDYAKNTVYLQMNSLKPEDTAVYYCAAEPYIQWVYYGGNGRRYGYWGQGTQVTVSS | high polyreactivity |
| QVQLVESGGGLVQAGGSLRLSCDASGFTFDDYAMGWYRQAHGNEMELVAAISSSRDSTYNADSVKGRFTISRDYEKNTVYLQINSLKPQDTAVYYCAAEYDREEYSGYDYWGEGTQVTVSS | low polyreactivity |
| QVQLVESGGGLVQAGGSLRLSCAASGFTFVRYAMGWYRQAPGKERELVAAISRSSGSTYYADSVKGRFTISRDNAKNTVYLQMNSLKPEDTAVYYCARRYGRYSGTYDYWGQGTQVTVSS | high polyreactivity |
| QVQLVESGGGLVQAGGSLRLSCAASGIIIRYYAMGWYRQAPGKERELVADITTGGTTYYADSVKGRFTISRDNAKNTVYLQMNCLKPEDTAVYYCAAYYFPTYSKTYIYPFDYWGQGTQVTVSS | low polyreactivity |
| QVQLVESGGGLVQAGGSLRLSCAASGGTFSPNTMGWYRQAPGKERELVAAISSSGSTSYADSVKGRFTISRDNAKNTVYLQMNSLKPEDTAVYYCNADDTISYYASGFDNYHYWGQGTQVTVSS | low polyreactivity |
| QVQLVESGGGLVQAGGSLRLSCAASGRIFIRAMGCYTQAPGKERELVAGITNGGITYYADSVKGRFTISRDNAKTTVYLQMNSLKPEDTAVYSCNARSRSVLYKYDYWGQGTQETVSS | low polyreactivity |
| QVQLVESGGGLVQAGGRLRLSCDASGSIFYYYTMGWYRQAPGKEREFVAAITWRGASTYYADSVKGRFTISRDNAKNTVDLKMNSLKPEDTAVDYCNARWRVPRYRYDYWGQGTQVTVSS | high polyreactivity |
| QVQLVESGGGLVQAGSSLRLSCAASGFTFNRYAMGWYRQAPGKERELVAAISWSGGSTYYADSVKGRFTISRDNAKNTVYLQMNSLKPEDTEVYYCSDATAYYRYRGGYDYWGQGTQVTVSS | high polyreactivity |
